# From patent US20120237496
# T1: Peptide-6b
# T1 chain: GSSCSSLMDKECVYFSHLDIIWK
# T2: Peptide-8 (not fully specified)
# T2 chain: CQLYENKPRRPYILK
# T3: Peptide-13 (not fully specified)
# T3 chain: CRPPGFSPFRK
# T4: Peptide-6a
# T4 chain: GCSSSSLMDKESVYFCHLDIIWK
# T5: Peptide-3
# T5 chain: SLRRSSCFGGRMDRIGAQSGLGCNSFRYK
# T6: Peptide-5 (not fully specified)
# T6 chain: CDRVYIHPFHLK
# Tests used:
# Peptide-6b = biological target: T1, Peptide-6b
# Peptide-8 = biological target: T2, Peptide-8
# Peptide-13 = biological target: T3, Peptide-13
# Peptide-6a = biological target: T4, Peptide-6a
# Peptide-3 = biological target: T5, Peptide-3
# Peptide-5 = biological target: T6, Peptide-5
Protein,activity relative to G399V/G714K (B1) (Peptide-7) [fold],kapp ratio vs G399V/G714K (B1) (Peptide-7) [fold],kapp ratio vs G399V/G714K (B1) (Peptide-6b) [fold],activity relative to G399V/G714K (B1) (Peptide-2) [fold],kapp ratio vs G399V/G714K (B1) (Peptide-2) [fold],activity relative to G399V/G714K (B1) (Peptide-1) [fold],kapp ratio vs G399V/G714K (B1) (Peptide-1) [fold],kapp ratio vs G399V/G714K (B1) (Peptide-8) [fold],kapp ratio vs G399V/G714K (B1) (Peptide-13) [fold],activity relative to G399V/G714K (B1) (Peptide-4) [fold],kapp ratio vs G399V/G714K (B1) (Peptide-4) [fold],activity relative to G399V/G714K (B1) (Peptide-6a) [fold],kapp ratio vs G399V/G714K (B1) (Peptide-6a) [fold],kapp ratio vs G399V/G714K (B1) (Peptide-3) [fold],activity relative to G399V/G714K (B1) (Peptide-5) [fold],kapp ratio vs G399V/G714K (B1) (Peptide-5) [fold]
C1 (protein) YPYDVPDYAYPYDVPDYAYPYDVPDYAGSYDDGICKSSDCIKSAARLIQNMDATTEPCTDFFKYACGGWLKRNVIPETSSRYGNFDILRDELEVVLKDVLQEPKTEDIVAVQKAKALYRSCINESAIDSRGGEPLLKLLPDIYGWPVATENWEQKYGASWTAEKAIAQLNSKYGKKVLINLFVGTDDKNSVNHVIHIDQPRLGLPSRDYYECTGIYKEACTAYVDFMISVARLIRQEERLPIDENQLALEMNKVMELEKEIANATAKPEDRNDPMLLYNKMTLAQIQNNFSLEINGKPFSWLNFTNEIMSTVNISITNEEDVVVYAPEYLTKLKPILTKYSARDLQNLMSWRFIMDLVSSLSRTYKESRNAFRKALYVTTSETATWRRCANYVNGNMMNAVGRLYVEAAFAGESKHVVEDLIAQIREVFIQTLDDLTWMDAETKKRAEEKALAIKERIGYPDDIVSNDNKLNNEYLELNYKEDEYFENIIQNLKFSQSKQLKKLREKVDKDEWISGAAVVNAFYSSGRNQIVFPAGILQPPFFSAQQSNSLNYGGIGMVIGHEITHGFDDNGRNFNKDGDLVDWWTQQSASNFKEQSQCMVYQYGNFSWDLAGGQHLNGINTLGENIADNGGLGQAYRAYQNYIKKNGEEKLLPGLDLNHKQLFFLNFAQVWCGTYRPEYAVNSIKTVVHSPKNFRIIGTLQNSAEFSEAFHCRKNSYMNPEKKCRVW,0.96,0.9,0.76,1.12,1.23,1.14,1.28,0.62,0.52,1.1,0.51,0.76,0.97,0.36,0.86,1.02
D7 (protein) YPYDVPDYAYPYDVPDYAYPYDVPDYAGSYDDGICKSSDCIKSAARLIQNMDATTEPCTDFFKYACGGWLKRNVIPETSSRYGNFDILRDELEVVLKDVLQEPKTEDIVAVQKAKALYRSCINESAIDSRGGEPLLKLLPDIYGWPVATENWEQKYGASWTAEKAIAQLNSKYGKKVLINLFVGTDDKNSVNHVIHIDQPRLGLPRRDYYECTGIYKEACTAYVDLMISVARLIRQEERLPIDENQLALEMNKVMELEKEIANATAKPEDRNDPMLLYNKMTLAQIQNNFSLEINGKPFSWLNFTNEIMSTVNISITNEEDVVVYAPEYLTKLKPILTKYSARDLQNLMSWRFIMGLVSSLSRTYKESRNAFRKALYVTTSETATWRRCANYVNGNMMNAVGRLYVEAAFAGESKHVVEDLIAQIREVFIQTLDDLTWMDAETKKRAEEKALAIKERIGYPDDIVSNDNKLNNEYLELNYKEDEYFENIIQNLKFSQSKQLKKLREKVDKDEWISGAAVVNAFYSSGRNQIVFPAGILQPPFFSAQQSNSLNYGGIGMVIGHEITHGFMDNVRNPNKDDDLVDWWTQQSASNFKEQSQCMVYQYGNFSWDLAGGQHLNGINTLGENIADNGGLGQAYRAYQNYIKKNGEEKLLPGLDLNHKQLFFLNFAQVWCGTYRPEYAVNSIKTDVHSPKNFRIIGTLQNSAEFSEAFHCRKNSYMNPEKKCRVW,0.66,–,–,1.18,–,0.88,–,–,–,0.91,–,0.13,–,–,0.09,–
D9 (protein) YPYDVPDYAYPYDVPDYAYPYDVPDYAGSYDDGICKSSDCIKSAARLIQNMDATTEPCTDFFKYACGGWLKRNVIPETSSRYGNFDILRDELEVVLKDVLQEPKTEDIVAVQKAKALYRSCINESAIDSRGGEPLLKLLPDIYGWPVATENWEQKYGASWTAEKAIAQLNSKYGKKVLINLFVGTDDKNSVNHVIHIDQPRLGLPRRDYYECTGIYKEACTAYVDLMISVARLIRQEERLPIDENQLALEMNKVMELEKEIANATSKPEDRNDPMLLYNKMTLAQIQNNFSLEINGKPFSWLNFTNEIMSTVNISITNEEDVVVYAPEYLTKLKPILTKYSARDLQNLMSWRFIMGLVSSLSRTYKESRNAFRKALYVTTSETATWRRCANYVNGNMMNAVGRLYVEAAFAGESKHVVEDLIAQIREVFIQTLDDLTWMDAETKKRAEEKALAIKERIGYPDDIVSNDNKLNNEYLELNYKEDEYFENIIQNLKFSQSKQLKKLREKVDKDEWISGAAVVNAFYSSGRNQIVFPAGILQPPFFSAQQSNSLNYGGIGMVIGHEITHGFMDNVRNPNKDDDLVDWWTQQSASNFKEQSQCMVYQYGNFSWDLAGGQHLNGINTLGENIADNGGLGQAYRAYQNYIKKNGEEKLLPGLDLNHKQLFFLNFAQVWCGTYRPEYAVNSIKTDVHSPKNFRIIGTLQNSAEFSEAFHCRKNSYMNPEKKCRVW,0.43,–,–,1.11,–,1.07,–,–,–,0.86,–,0.06,–,–,0.08,–
D6 (protein) YPYDVPDYAYPYDVPDYAYPYDVPDYAGSYDDGICKSSDCIKSAARLIQNMDATTEPCTDFFKYACGGWLKRNVIPETSSRYGNFDILRDELEVVLKDVLQEPKTEDIVAVQKAKALYRSCINESAIDSRGGEPLLKLLPDIYGWPVATENWEQKYGASWTAEKAIAQLNSKYGKKVLINLFVGTDDKNSVNHVIHIDQPRLGLPRRDYYECTGIYKEACTAYVDLMISVARLIRQEERLPIDENQLALEMNKVMELEKEIANATSKPEDRNDPMLLYNKMTLAQIQNNFSLEINGKPFSWLNFTNEIMSTVNISITNEEDVVVYAPEYLTKLKPILTKYSARDLQNLMSWRFIMDLVSSLSRTYKESRNAFRKALYVTTSETATWRRCANYVNGNMMNAVGRLYVEAAFAGESKHVVEDLIAQIREVFIQTLDDLTWMDAETKKRAEEKALAIKERIGYPDDIVSNDNKLNNEYLELNYKEDEYFENIIQNLKFSQSKQLKKLREKVDKDEWISGAAVVNAFYSSGRNQIVFPAGILQPPFFSAQQSNSLNYGGIGMVIGHEITHGFMDNVRNPNKDDDLVDWWTQQSASNFKEQSQCMVYQYGNFSWDLAGGQHLNGINTLGENIADNGGLGQAYRAYQNYIKKNGEEKLLPGLDLNHKQLFFLNFAQVWCGTYRPEYAVNSIKTDVHSPKNFRIIGTLQNSAEFSEAFHCRKNSYMNPEKKCRVW,0.68,–,–,2.37,–,2.24,–,–,–,0.89,–,0.35,–,–,0.08,–
D8 (protein) YPYDVPDYAYPYDVPDYAYPYDVPDYAGSYDDGICKSSDCIKSAARLIQNMDATTEPCTDFFKYACGGWLKRNVIPETSSRYGNFDILRDELEVVLKDVLQEPKTEDIVAVQKAKALYRSCINESAIDSRGGEPLLKLLPDIYGWPVATENWEQKYGASWTAEKAIAQLNSKYGKKVLINLFVGTDDKNSVNHVIHIDQPRLGLPRRDYYECTGIYKEACTAYVDLMISVARLIRQEERLPIDENQLALEMNKVMELEKEIANATAKPEDRNDPMLLYNKMTLAQIQNNFSLEINGKPFSWLNFTNEIMSTVNISITNEEDVVVYAPEYLTKLKPILTKYSARDLQNLMSWRFIMDLVSSLSRTYKESRNAFRKALYVTTSETATWRRCANYVNGNMMNAVGRLYVEAAFAGESKHVVEDLIAQIREVFIQTLDDLTWMDAETKKRAEEKALAIKERIGYPDDIVSNDNKLNNEYLELNYKEDEYFENIIQNLKFSQSKQLKKLREKVDKDEWISGAAVVNAFYSSGRNQIVFPAGILQPPFFSAQQSNSLNYGGIGMVIGHEITHGFMDNVRNPNKDDDLVDWWTQQSASNFKEQSQCMVYQYGNFSWDLAGGQHLNGINTLQENIADNGGLGQAYRAYQNYIKKNGEEKLLPGLDLNHKQLFFLNFAQVWCGTYRPEYAVNSIKTDVHSPKNFRIIGTLQNSAEFSEAFHCRKNSYMNPEKKCRVW,0.82,–,–,2.66,–,2.58,–,–,–,0.95,–,0.44,–,–,0.09,–
D10 (protein) YPYDVPDYAYPYDVPDYAYPYDVPDYAGSYDDGICKSSDCIKSAARLIQNMDATTEPCTDFFKYACGGWLKRNVIPETSSRYGNFDILRDELEVVLKDVLQEPKTEDIVAVQKAKALYRSCINESAIDSRGGEPLLKLLPDIYGWPVATENWEQKYGASWTAEKAIAQLNSKYGKKVLINLFVGTDDKNSVNHVIHIDQPRLGLPRRDYYECTGIYKEACTAYVDLMISVARLIRQEERLPIDENQLALEMNKVMELEKEIANATSKPEDRNDPMLLYNKMTLAQIQNNFSLEINGKPFSWLNFTNEIMSTVNISITNEEDVVVYAPEYLTKLKPILTKYSARDLQNLMSWRFIMGLVSSLSRTYKESRNAFRKALYVTTSETATWRRCANYVNGNMMNAVGRLYVEAAFAGESKHVVEDLIAQIREVFIQTLDDLTWMDAETKKRAEEKALAIKERIGYPDDIVSNDNKLNNEYLELNYKEDEYFENIIQNLKFSQSKQLKKLREKVDKDEWISGAAVVNAFYSSGRNQIVFPAGILQPPFFSAQQSNSLNYGGIGMVIGHEITHGFMDNVRNPNKDDDLVDWWTQQSASNFKEQSQCMVYQYGNFSWDLAGGQHLNGINTLQENIADNGGLGQAYRAYQNYIKKNGEEKLLPGLDLNHKQLFFLNFAQVWCGTYRPEYAVNSIKTDVHSPKNFRIIGTLQNSAEFSEAFHCRKNSYMNPEKKCRVW,0.33,–,–,1.26,–,1.33,–,–,–,0.84,–,0.08,–,–,0.08,–
